We go through 5 molecules from PMC6493668 (2019).

The target in assay [1] is T1, hepatitis A virus (HAV) full particle, genotype TZ84 (HAV IA genotype) (hepatitis A virus, genotype TZ84 (HAV …)).
T1 chain 1: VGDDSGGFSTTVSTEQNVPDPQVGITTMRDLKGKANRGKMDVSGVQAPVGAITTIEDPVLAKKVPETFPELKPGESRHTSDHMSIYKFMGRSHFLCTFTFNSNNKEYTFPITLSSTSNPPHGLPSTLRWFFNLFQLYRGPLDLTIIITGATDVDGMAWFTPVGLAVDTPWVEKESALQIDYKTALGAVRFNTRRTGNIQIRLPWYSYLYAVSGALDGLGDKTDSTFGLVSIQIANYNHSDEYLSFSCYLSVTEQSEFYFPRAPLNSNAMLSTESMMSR
T1 chain 2: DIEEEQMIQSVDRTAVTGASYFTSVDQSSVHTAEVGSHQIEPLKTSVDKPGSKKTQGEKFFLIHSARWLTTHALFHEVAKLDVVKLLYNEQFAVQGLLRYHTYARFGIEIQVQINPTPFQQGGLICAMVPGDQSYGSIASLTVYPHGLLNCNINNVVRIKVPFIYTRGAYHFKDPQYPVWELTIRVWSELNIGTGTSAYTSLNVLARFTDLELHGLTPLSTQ
T1 chain 3: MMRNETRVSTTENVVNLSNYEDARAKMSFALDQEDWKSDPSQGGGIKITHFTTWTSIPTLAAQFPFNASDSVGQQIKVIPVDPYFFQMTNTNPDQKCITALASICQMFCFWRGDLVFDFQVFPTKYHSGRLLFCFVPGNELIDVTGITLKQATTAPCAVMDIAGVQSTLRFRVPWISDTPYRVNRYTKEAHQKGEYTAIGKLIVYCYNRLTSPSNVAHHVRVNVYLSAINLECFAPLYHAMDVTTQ
Briefly: SPR.

For assay [2], the target named is T1, hepatitis A virus (HAV) full particle, …. Briefly: SPR. Background: SPR reads the build-up and loss of mass on a sensor chip optically.

B1: F6 Fab (fragment of antigen binding of the neutralizing monoclonal antibody F6) (Fab, V domains shown)
VH: EVKLVESGGGLVKPGGSLKLSCAASMYNFQHYGMSWVRQTPEKRLEWVATIQTNATYTYYPDSVKGRFTISRDNARNILYLQMSSLRSGDTAMYYCARRDNIECHYYFDYWGQGTTLTVSS
VL: DIVLTQSPAIMSASPGERVTMTCSAHQYVSYMHWYQQKSGTSPKRWIYDTSRLADAIPQRFSGRGSGTSYSLTISSMEAEDAATYYCQQWQSNPYTFGGGTKLEIK
Broadly, the koff is a measure of how fast the partners let go of each other. A high value points to fast dissociation. As usually defined, the Kd is a measure of binding affinity in units of concentration. In the case of B1, the koff in assay [1] was 0.000134 s⁻¹. The molecule also came in with an equilibrium dissociation constant (Kd) in assay [2] of 2.19 nM.

B2: R10 Fab (fragment of antigen binding of the neutralizing monoclonal antibody R10) (Fab, V domains shown)
VH: EVKLVESGGGSVKPGGSLKLSCAASGFSFSTYGMSWVRQTPEKRLEWVATISGGGGYTYYPDSVKGRFTISRDNARNILYLQMSSLRSGDTAMYYCARRVTTVAEYYFDYWGQGTTLTVSS
VL: DIVLTQSPAIMSASPGEKVTMTCSASSSVSYIHWYQQKSGTSPKRWIYDTSRLAFGVPGRFSGSGSGTSYSLTISSMEAEDAATYYCQQWSSNYTFGGGTNLEIK
The molecule B2 had a koff in assay [1] of 0.000528 s⁻¹. This molecule registered an equilibrium dissociation constant (Kd) in assay [2] of 8.13 nM.

B3: F9 Fab (fragment of antigen binding of the neutralizing monoclonal antibody F9) (Fab, V domains shown)
VH: EVKLVESGGGLVKPGGSLKLSCAASAFTITTYGMSWVRQTPEKRLEWVATITAGGSYTYYPDSVKGRFTISRDNAKNTLYLQMSSLRSGDTAMYYCARKVTSVAEYYFDYWGQGTTLTVSS
VL: DIVLTQSPAIMSASPGEKVTMTCSATSGLSYIHWYQQKSGTSPKRWIYDTSKLAFGAPARFSGSGSGTSYSLTISSMEAEDAATYYCQQWDVNPYTFGGGTKLEIK
In assay [1], B3 had a koff of 0.000537 s⁻¹. The molecule further came in with a Kd in assay [2] of 7.18 nM.

B4: F7 Fab (fragment of antigen binding of the neutralizing monoclonal antibody F7) (Fab, V domains shown)
VH: EVKLVESGGGLVKPGGSLKLSCAASIHTFNCYGMSWVRQTPEKGLEWVATIDAASSYTYYPDSVKGRFTISRDNAKNTLYLQMSSLRSGDTAMYYCARRDNTTAQYYFDYWGQGTTLTVSS
VL: DIVLTQSPAIMSASPGEKVTMTCSAASSVSYIHWYQQKSGTSPKRWIYDTSRLAFGVPTRFSGSGSGTSYSLTISSMEAEDAATYYCQQWSTNPYTFGGGTKLEIK
As for B4, the koff in assay [1] amounted to 0.000743 s⁻¹. Besides, the Kd in assay [2] is 7.1 nM.

B5: F4 Fab (fragment of antigen binding of the neutralizing monoclonal antibody F4) (Fab, V domains shown)
VH: EVKLVESGGGLVKPGGSLKLSCAASLFTHNNYGMSWVRQTPEKRLEWVATINSTASYTYYPDSVKGRFTISRDNAKNTLYLQMSSLRSGDTAIYYCARKNDTFSDYYFDYWGQGTTLTVSS
VL: DIVLTQSPAIMSASPGERVTMTCSAHVSTDYMHWYQQKSGTSPKRWIYDTSKLASTVPDRFSGSGSGTSYSLTISSMEAEDAATYYCQQWNNNAYTYGGGTKLEIK
In assay [1], B5 had a koff of 0.000252 s⁻¹. The molecule also registered a Kd in assay [2] of 5.14 nM.
